Measured values as given in doi:10.1101/2022.01.28.478199 (bioRxiv, 2022).
“And” between values parts separate entries of the source, which are not always exact repeats. Equal entries are not always repeated.

B1: Hsp78-6xHis (wild-type Hsp78 with a C-terminal 6x polyhistidine-tag) (natural protein)
chain: not shown
B2: WT Hsp78 expressed and affinity purified from E. coli (natural protein)
chain: not shown

What was measured:
native gel or EMSA = target: the molecule itself; assay: native gel or EMSA
SEC = target: the molecule itself; assay: SEC

Protein	stoichiometry N (native gel or EMSA)	stoichiometry N (SEC)
B1	3 and 6	–
B2	–	2 and 3
